The values below come from PMC6659671.

Assay [1] has as its target HisBamA G781C (E. coli) (UniProt P0A940). Briefly: cross-linking.
For assay [2] the target is unchanged. The experiment in a line: cross-linking; kinetics of intermolecular disulfide-bond formation in intact cells; 0.2 mM 4-DPS on ice for 0, 2, 5, 15, 30, 60 and 90 min; quantitated from αStrepII immunoblots.
The target of assay [3] is HisBamA S425C (E. coli) (UniProt P0A940). The experiment in a line: cross-linking.

In the case of MBP−76EspP A1043C (from UniProt Q7BSW5), the percent disulfide-bond formation in assay [1] was determined as 42%. Besides, in assay [2], the K (rate constant of disulfide-bond formation, single-step fit) was found to be 0.038 min⁻¹ and the half-time of disulfide-bond formation was 18.2 min.

MBP−76EspP Y1298C (from UniProt Q7BSW5) came in with a percent disulfide-bond formation in assay [3] of 28%.
